Values of other authors as cited in publication PMC3034196.

Target: alkaline protease (Pseudomonas aeruginosa) (UniProt Q03023)
UniProt Q03023, sequence (Q03023 10-479): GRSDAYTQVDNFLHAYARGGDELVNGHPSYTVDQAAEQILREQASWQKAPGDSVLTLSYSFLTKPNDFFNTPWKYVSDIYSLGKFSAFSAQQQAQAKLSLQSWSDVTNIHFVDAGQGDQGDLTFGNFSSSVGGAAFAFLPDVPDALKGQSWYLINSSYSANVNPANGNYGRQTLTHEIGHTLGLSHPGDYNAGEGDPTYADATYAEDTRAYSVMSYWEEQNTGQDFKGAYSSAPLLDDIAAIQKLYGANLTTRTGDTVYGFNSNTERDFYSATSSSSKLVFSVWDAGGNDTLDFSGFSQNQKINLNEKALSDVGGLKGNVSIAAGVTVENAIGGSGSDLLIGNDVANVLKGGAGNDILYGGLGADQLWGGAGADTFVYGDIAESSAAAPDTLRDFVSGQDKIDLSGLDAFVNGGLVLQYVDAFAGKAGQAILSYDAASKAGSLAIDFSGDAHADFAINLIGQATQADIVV

For “APRin (alkaline protease inhibitor) (from UniProt Q03026)”, the Kd is listed as 4 pM.
